The results in this text go back to patent US12031137B2, “Compositions comprising SASP modulators and senescence attenuators and uses thereof for modulating cellular senescence” (RSEM, LIMITED PARTNERSHIP, priority 2016, dated 2024).

Changes are numbered by the printed parent chain. Numbers in names are those of the source. A value given as a limit tells only on which side of the number the result lay.

The subject of assay [1] is SEMA3A-FC. The assay is described as follows: Sema 3A binding assay on plate-coated purified traps (saturation curves, KD). Conditions: for Binding to SEMA3A: Table 2, Yes/No; for Kd: traps coated on plate, overnight incubation, read-out: SEMA 3A-FC binding (dissociation constant). On the procedure:
(§1) Sema 3A and AP-VEGF165 binding assays. Saturation curves for the determinations of KD of binding to SEMA 3A or VEGF165 were obtained as follow. Wells of high protein binding 96 well plates (Maxisorp, Nunc) were coated with purified traps diluted in PBS and blocked afterward with binding buffer (PBS containing 2% casein and 0.05% Tween 20). The SEMA3A-FC (R&D systems) or AP-VEGF165 ligands were diluted in binding buffer over an extensive range of concentrations and added to wells. Following an overnight incubation, wells were washed with PBS containing 0.05% tween. Bound SEMA3a-FC was detected using an HRP-linked anti-Human IgG (Biorad) and ECL substrate (Pierce). Alternatively, bound AP-VEGF165 was detected using CPD star substrate (Roche). The Chemiluminescent signal was acquired on a TECAN reader. Dissociation constant (KD) were determined by non-linear curve fitting using the Graph Pad prism software.
(§2) The relative affinity of traps of the present invention to SEMA3A and VEGF has been assessed. Traps were prepared as described in Example 8.

For assay [2], the target named is T1, human VEGF165 (Homo sapiens, UniProt P15692).
T1 construct: made in house; host or cells: HEK293T
T1 sequence (P15692 27-191 isoform P15692-4): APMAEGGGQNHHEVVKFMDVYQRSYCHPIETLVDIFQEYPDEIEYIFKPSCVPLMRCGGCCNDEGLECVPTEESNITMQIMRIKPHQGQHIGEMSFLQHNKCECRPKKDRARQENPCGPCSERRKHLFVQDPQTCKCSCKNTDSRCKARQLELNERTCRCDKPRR
The assay is described as follows: AP-VEGF165 binding assay on plate-coated purified traps (saturation curves, KD). To be noted: AP-VEGF165 ligand; for Kd: read-out: VEGF165 binding (dissociation constant). The method, then: Production of AP-VEGF165. the coding sequence of the human VEGF165 variant 1 (NM_001025366) was sub-cloned in the pAPtag5 vector (GenHunter), in-frame with an Alkaline Phosphatase domain (AP-VEGF165). HEK293T cells were transfected with the AP-VEGF165 construct using a polyethylenimine (PEI) transfection method. Following the overnight transfection step, cells were cultured for an additional 60 hr in serum free media (In vitrogen). The cell media were collected and concentrated on a PES device (Pierce). The concentrated AP-VEGF165 ligand was analysed on PAGE-SDS and quantified using SimplyBlue safe stain (Life technologies).
as §1, §2

On to “Trap S: NRP1 trap a1a2-b1-c, aa about 22-430 and 584-856; SEQ ID NOs 93/94”, for which the “Binding to SEMA3A” value in assay [1] was “Yes”. Further, the Kd in assay [2] was 24.6 nM.
With “Trap W: NRP1 trap a1a2-b1-c (in part), aa about 22-430 and 584-795; SEQ ID NOs 87/88”, in assay [1], the “Binding to SEMA3A” value is recorded as “Yes” and the Kd is 1.14 nM. Further, in assay [2], the Kd came to 20.7 nM.

B1: Trap AR: NRP1 trap a2b1, aa about 22-26 and 143-424; SEQ ID NOs 63/64 (protein)
chain: MERGLPLLCAVLALVLAPAGAFRNDKRGPECSQNYTTPSGVIKSPGFPEKYPNSLECTYIVFAPKMSEIILEFESFDLEPDSNPPGGMFCRYDRLEIWDGFPDVGPHIGRYCGQKTPGRIRSSSGILSMVFYTDSAIAKEGFSANYSVLQSSVSEDFKCMEALGMESGEIHSDQITASSQYSTNWSAERSRLNYPENGWTPGEDSYREWIQVDLGLLRFVTAVGTQGAISKETKKKYYVKTYKIDVSSNGEDWITIKEGNKPVLFQGNTNPTDVVVAVFPKPLITRFVRIKPATWETGISMRFEVYGCRSGSKENLYFQG
Turning to B1, in assay [1], the “Binding to SEMA3A” value is “Yes”.

B2: Trap AJ: NRP1 trap a2b1b2c, aa about 22-26, 143-630 and 701-856; SEQ ID NOs 59/60 (protein)
chain: MERGLPLLCAVLALVLAPAGAFRNDKRGPECSQNYTTPSGVIKSPGFPEKYPNSLECTYIVFAPKMSEIILEFESFDLEPDSNPPGGMFCRYDRLEIWDGFPDVGPHIGRYCGQKTPGRIRSSSGILSMVFYTDSAIAKEGFSANYSVLQSSVSEDFKCMEALGMESGEIHSDQITASSQYSTNWSAERSRLNYPENGWTPGEDSYREWIQVDLGLLRFVTAVGTQGAISKETKKKYYVKTYKIDVSSNGEDWITIKEGNKPVLFQGNTNPTDVVVAVFPKPLITRFVRIKPATWETGISMRFEVYGCKITDYPCSGMLGMVSGLISDSQITSSNQGDRNWMPENIRLVTSRSGWALPPAPHSYINEWLQIDLGEEKIVRGIIIQGGKHRENKVFMRKFKIGYSNNGSDWKMIMDDSKRKAKSFEGNNNYDTPELRTFPALSTRFIRIYPERATHGGLGLRMELLGCEVEAPTAGPTTPNGNLVDECDDDQANCHSGTGDDFQLTGGTTVLATEKPTVIDSTIQSEFPTYGFNCEFGWGSHKTFCHWEHDNHVQLKWSVLTSKTGPIQDHTGDGNFIYSQADENQKGKVARLVSPVVYSQNSAHCMTFWYHMSGSHVGTLRVKLRYQKPEEYDQLVWMAIGHQGDHWKEGRVLLHKSLKLYQVIFEGEIGKGNLGGIAVDDISINNHISQEDCAKPADLDKKNPEIKIDETGSTPGYEGEGEGDKNISRKPGNVLKTLDPRSGSKENLYFQG
Turning to B2, the “Binding to SEMA3A” value in assay [1] is “Yes”.

B3: Trap AS: NRP1 trap a2b1c, aa about 22-26, 143-430 and 584-856; SEQ ID NOs 65/66 (protein)
chain: MERGLPLLCAVLALVLAPAGAFRNDKRGPECSQNYTTPSGVIKSPGFPEKYPNSLECTYIVFAPKMSEIILEFESFDLEPDSNPPGGMFCRYDRLEIWDGFPDVGPHIGRYCGQKTPGRIRSSSGILSMVFYTDSAIAKEGFSANYSVLQSSVSEDFKCMEALGMESGEIHSDQITASSQYSTNWSAERSRLNYPENGWTPGEDSYREWIQVDLGLLRFVTAVGTQGAISKETKKKYYVKTYKIDVSSNGEDWITIKEGNKPVLFQGNTNPTDVVVAVFPKPLITRFVRIKPATWETGISMRFEVYGCKITDYPEVEAPTAGPTTPNGNLVDECDDDQANCHSGTGDDFQLTGGTTVLATEKPTVIDSTIQSEFPTYGFNCEFGWGSHKTFCHWEHDNHVQLKWSVLTSKTGPIQDHTGDGNFIYSQADENQKGKVARLVSPVVYSQNSAHCMTFWYHMSGSHVGTLRVKLRYQKPEEYDQLVWMAIGHQGDHWKEGRVLLHKSLKLYQVIFEGEIGKGNLGGIAVDDISINNHISQEDCAKPADLDKKNPEIKIDETGSTPGYEGEGEGDKNISRKPGNVLKTLDPRSGSKENLYFQG
As to B3, the “Binding to SEMA3A” value in assay [1] is listed as “Yes”.

B4: Trap AK: NRP1 trap a2b1b2, aa about 22-26 and 143-583; SEQ ID NOs 61/62 (protein)
chain: MERGLPLLCAVLALVLAPAGAFRNDKRGPECSQNYTTPSGVIKSPGFPEKYPNSLECTYIVFAPKMSEIILEFESFDLEPDSNPPGGMFCRYDRLEIWDGFPDVGPHIGRYCGQKTPGRIRSSSGILSMVFYTDSAIAKEGFSANYSVLQSSVSEDFKCMEALGMESGEIHSDQITASSQYSTNWSAERSRLNYPENGWTPGEDSYREWIQVDLGLLRFVTAVGTQGAISKETKKKYYVKTYKIDVSSNGEDWITIKEGNKPVLFQGNTNPTDVVVAVFPKPLITRFVRIKPATWETGISMRFEVYGCKITDYPCSGMLGMVSGLISDSQITSSNQGDRNWMPENIRLVTSRSGWALPPAPHSYINEWLQIDLGEEKIVRGIIIQGGKHRENKVFMRKFKIGYSNNGSDWKMIMDDSKRKAKSFEGNNNYDTPELRTFPALSTRFIRIYPERATHGGLGLRMELLGCRSGSKENLYFQG
As to B4, the “Binding to SEMA3A” value in assay [1] is on record as “Yes”.

B5: Trap Z: NRP1 trap a1a2-b1b2-c, aa about 22-856, E319K, D320K; SEQ ID NOs 71/72 (protein)
chain: FRNDKCGDTIKIESPGYLTSPGYPHSYHPSEKCEWLIQAPDPYQRIMINFNPHFDLEDRDCKYDYVEVFDGENENGHFRGKFCGKIAPPPVVSSGPFLFIKFVSDYETHGAGFSIRYELFKRGPECSQNYTTPSGVIKSPGFPEKYPNSLECTYIVFAPKMSEIILEFESFDLEPDSNPPGGMFCRYDRLEIWDGFPDVGPHIGRYCGQKTPGRIRSSSGILSMVFYTDSAIAKEGFSANYSVLQSSVSEDFKCMEALGMESGEIHSDQITASSQYSTNWSAERSRLNYPENGWTPGKKSYREWIQVDLGLLRFVTAVGTQGAISKETKKKYYVKTYKIDVSSNGEDWITIKEGNKPVLFQGNTNPTDVVVAVFPKPLITRFVRIKPATWETGISMRFEVYGCKITDYPCSGMLGMVSGLISDSQITSSNQGDRNWMPENIRLVTSRSGWALPPAPHSYINEWLQIDLGEEKIVRGIIIQGGKHRENKVFMRKFKIGYSNNGSDWKMIMDDSKRKAKSFEGNNNYDTPELRTFPALSTRFIRIYPERATHGGLGLRMELLGCEVEAPTAGPTTPNGNLVDECDDDQANCHSGTGDDFQLTGGTTVLATEKPTVIDSTIQSEFPTYGFNCEFGWGSHKTFCHWEHDNHVQLKWSVLTSKTGPIQDHTGDGNFIYSQADENQKGKVARLVSPVVYSQNSAHCMTFWYHMSGSHVGTLRVKLRYQKPEEYDQLVWMAIGHQGDHWKEGRVLLHKSLKLYQVIFEGEIGKGNLGGIAVDDISINNHISQEDCAKPADLDKKNPEIKIDETGSTPGYEGEGEGDKNISRKPGNVLKTLDPRSGSKENLYFQG
Regarding B5, the “Binding to SEMA3A” value in assay [1] is given as “Yes”. Further, the Kd in assay [2] worked out at 67 nM.

B6: Trap AC: NRP1 trap a1a2-b1b2-c, aa about 22-856, D320K; SEQ ID NOs 75/76 (protein)
chain: B5 chain with K298E
Regarding B6, in assay [1], the “Binding to SEMA3A” value is given as “Yes” and the Kd worked out at 4 nM. For the same molecule, the “VEGF165 binding (dissociation constant)” value in assay [2] is recorded as “No binding”.

B7: Trap AB: NRP1 trap a1a2-b1b2-c, aa about 22-856, E348K, S346A; SEQ ID NOs 73/74 (protein)
chain: B5 chain with K298E, K299D, S325A, E327K
With B7, in assay [1], the “Binding to SEMA3A” value was “No”. Besides, the Kd in assay [2] was 29.5 nM.

B8: Trap N: NRP1 trap a1a2, aa about 22-265; SEQ ID NOs 85/86 (protein)
chain: FRNDKCGDTIKIESPGYLTSPGYPHSYHPSEKCEWLIQAPDPYQRIMINFNPHFDLEDRDCKYDYVEVFDGENENGHFRGKFCGKIAPPPVVSSGPFLFIKFVSDYETHGAGFSIRYELFKRGPECSQNYTTPSGVIKSPGFPEKYPNSLECTYIVFAPKMSEIILEFESFDLEPDSNPPGGMFCRYDRLEIWDGFPDVGPHIGRYCGQKTPGRIRSSSGILSMVFYTDSAIAKEGFSANYSVLRSGSKENLYFQG
In the case of B8, in assay [1], the “Binding to SEMA3A” value is “No” and the Kd is over 1000 nM. Also, the Kd in assay [2] was over 250 nM.
